Reference: paper PMC7721721

Tested on: anti-digoxigenin IgG antibody (sheep)
Assay: fluorescence (FRET) titration
Conditions: 5'-digoxigenin; 25 mM HEPES pH 7.2, 0.1 M NaCl, 37 C (FRET titrations, templated reactions); native PAGE binding buffer not given in the material

Q: “GTCACCGCAAAATAAGATTTTTTTTTTGAGTCGAATTCGTACC [DIG-Q-strand#2 (DIG-conjugated templating strand)]” was tested. Which Kd did it give?
A: The Kd was 3.6 nM.
